Data taken from article PMC4833211.

Biological target: KirBac1.1 WT
Assay: SEC

KirBac1.1 WT (natural protein)
stoichiometry N: 4
